Assays:
[1] = target: T1, human c-Met (Sino Biological) (human, UniProt P08581 25-932, limits assumed); assay: derived from the Biacore KD, normalised to VH0/Vk0
T1 construct: Analyte in the Biacore assay; also called antigen (c-Met); printed as "human c-Met antibody (Sino Biological, Beijing, China)"
Method: (§1) The candidate antibodies selected in Example 4 were measured for binding affinity for the antigen (c-Met) with the aid of Biacore. […] The anti-c-Met antibodies to be analyzed were immobilized on Protein A CM5 chips (GE Healthcare, Little Chalfont, UK) through which human c-Met antibody (Sino Biological, Beijing, China) with various concentrations ranging 0.15 to 2 nM was allowed to pass, thereby acquiring sensorgrams. On the basis of the acquired sensorgrams, association constants kₒₙ and dissociation constants koff were measured to calculate Ko value, the ratio koff/kₒₙ.
(§2) In order to select a final candidate group from the 21 candidate antibodies selected in Example 4, comparison was made according to criteria specified into expression level, binding affinity for antigen, thermal stability, and biopotency. As a rule, the expression level is considered to be the most important index when time and cost are taken into consideration from a point of view of production. […] Thereafter, degrees of improvement in each of the remaining candidate antibodies compared to the reference antibody (VH0/Vk0) were digitized with regard to the selected indices. For normalization, analysis index measurements for individual candidate antibodies were divided by average values to give ratios (index 1) which were in turn divided by the measurement for the antibody VH0/Vk0 (index 2) (Tables 6 to 9). In addition, the measurements for the four indices were multiplied for comprehensive comparison of the four indices of the candidate antibodies. The final results (index 3) are listed in a descending order in Table 10.

[2] = target: c-Met protein receptors on HUVEC (human, UniProt P08581 25-1390); assay: cell-based or functional assay
Sequence of c-Met protein receptors on HUVEC (P08581 25-1390): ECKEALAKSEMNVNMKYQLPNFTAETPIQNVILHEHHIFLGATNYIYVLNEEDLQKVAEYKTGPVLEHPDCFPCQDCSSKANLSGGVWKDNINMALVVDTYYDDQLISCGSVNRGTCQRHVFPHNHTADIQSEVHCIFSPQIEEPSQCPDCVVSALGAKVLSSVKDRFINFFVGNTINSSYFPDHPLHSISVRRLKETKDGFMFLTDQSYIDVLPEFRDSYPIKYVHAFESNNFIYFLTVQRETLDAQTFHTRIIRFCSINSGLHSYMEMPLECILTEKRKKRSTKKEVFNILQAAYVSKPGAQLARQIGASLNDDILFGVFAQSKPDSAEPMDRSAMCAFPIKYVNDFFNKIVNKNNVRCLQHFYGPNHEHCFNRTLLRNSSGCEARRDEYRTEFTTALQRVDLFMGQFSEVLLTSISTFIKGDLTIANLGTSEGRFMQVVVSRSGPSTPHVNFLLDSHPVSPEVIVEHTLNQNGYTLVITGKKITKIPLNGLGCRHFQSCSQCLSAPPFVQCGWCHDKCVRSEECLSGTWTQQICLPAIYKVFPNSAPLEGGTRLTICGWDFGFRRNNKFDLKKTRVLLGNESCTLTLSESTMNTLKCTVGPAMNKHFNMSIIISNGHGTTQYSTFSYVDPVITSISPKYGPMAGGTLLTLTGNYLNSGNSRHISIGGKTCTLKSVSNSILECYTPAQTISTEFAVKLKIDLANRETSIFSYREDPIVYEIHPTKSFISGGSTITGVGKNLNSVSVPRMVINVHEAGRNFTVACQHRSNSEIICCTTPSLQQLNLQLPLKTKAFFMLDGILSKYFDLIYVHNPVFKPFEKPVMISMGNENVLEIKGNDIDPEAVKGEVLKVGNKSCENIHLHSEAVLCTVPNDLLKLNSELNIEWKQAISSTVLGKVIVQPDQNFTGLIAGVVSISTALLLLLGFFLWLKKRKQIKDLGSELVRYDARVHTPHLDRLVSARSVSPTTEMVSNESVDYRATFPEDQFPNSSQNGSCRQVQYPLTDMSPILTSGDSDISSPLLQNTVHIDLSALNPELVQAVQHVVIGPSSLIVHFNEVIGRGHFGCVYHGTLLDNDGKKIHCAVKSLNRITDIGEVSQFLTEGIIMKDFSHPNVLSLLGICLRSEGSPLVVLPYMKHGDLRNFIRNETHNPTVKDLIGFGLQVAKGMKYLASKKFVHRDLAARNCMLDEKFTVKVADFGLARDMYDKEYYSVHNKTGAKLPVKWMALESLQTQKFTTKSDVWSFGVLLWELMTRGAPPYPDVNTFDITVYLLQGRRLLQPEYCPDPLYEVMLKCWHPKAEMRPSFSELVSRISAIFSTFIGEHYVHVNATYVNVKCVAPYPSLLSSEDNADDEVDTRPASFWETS

[3] = target: T1, human c-Met (Sino Biological); assay: SPR (Biacore T200), IgG captured on Protein A CM5 chip, c-Met 0.15-2 nM as analyte
Method: as §1

[4] = target: T1, human c-Met (Sino Biological); assay: derived from the Biacore KD, printed 'Average' 3.52 x10^-10 M divided by the KD
Method: as §1, §2

T1 sequence (P08581 25-932 limits assumed): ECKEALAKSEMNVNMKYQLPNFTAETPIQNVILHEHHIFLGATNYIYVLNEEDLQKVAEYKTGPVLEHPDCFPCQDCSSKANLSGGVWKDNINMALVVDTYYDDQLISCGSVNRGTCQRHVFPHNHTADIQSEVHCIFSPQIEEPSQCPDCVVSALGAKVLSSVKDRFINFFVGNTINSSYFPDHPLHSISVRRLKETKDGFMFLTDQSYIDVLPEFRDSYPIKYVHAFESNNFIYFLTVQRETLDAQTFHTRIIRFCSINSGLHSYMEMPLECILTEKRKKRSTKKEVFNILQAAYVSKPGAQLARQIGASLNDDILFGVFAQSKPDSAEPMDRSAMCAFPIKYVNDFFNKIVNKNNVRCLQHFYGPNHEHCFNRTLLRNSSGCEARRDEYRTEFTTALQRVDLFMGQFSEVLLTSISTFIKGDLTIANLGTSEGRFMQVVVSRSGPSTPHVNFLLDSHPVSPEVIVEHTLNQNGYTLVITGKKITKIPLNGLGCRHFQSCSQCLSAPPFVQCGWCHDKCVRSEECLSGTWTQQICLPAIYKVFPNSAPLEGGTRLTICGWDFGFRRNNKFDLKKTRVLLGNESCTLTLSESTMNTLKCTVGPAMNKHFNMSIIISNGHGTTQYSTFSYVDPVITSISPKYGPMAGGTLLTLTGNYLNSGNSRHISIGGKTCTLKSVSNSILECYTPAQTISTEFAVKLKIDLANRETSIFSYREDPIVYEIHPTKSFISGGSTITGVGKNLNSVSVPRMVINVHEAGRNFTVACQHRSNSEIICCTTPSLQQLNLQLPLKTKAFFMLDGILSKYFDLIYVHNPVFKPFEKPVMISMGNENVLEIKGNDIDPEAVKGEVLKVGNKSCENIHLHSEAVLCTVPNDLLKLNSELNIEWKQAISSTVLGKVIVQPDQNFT

B1: VH2/Vk2 (antibody, IgG1, V domains shown)
VH: EVQLVQSGAEVKKPGESLKISCKGSGYSFPTHWITWVRQMPGKGLEWMGTIDPTDSYNFYGPSFQGQVTISADKSISTAYLQWSSLKASDTAMYYCARDGNYYDSRGYYYDTFDMWGQGTLVTVSS
VL: DIQMTQSPSSLSASVGDRVTITCRASQGISTYLAWYQQKPGKAPKLLIYSASTLESGVPSRFSGSGSGTDFTLTISSLQPEDFATYYCQQADSFPLTFGGGTKVEIK
notes: Full IgG1/kappa expressed in HEK 293 EBNA cells
Index 2 (binding affinity, inverse KD relative to VH0/Vk0) [1]: 1.04 | Index 1 (Relative Migration divided by the Average 157.5), HUVEC migration assay [2]: 1.12 | Index 2 (Relative Migration relative to VH0/Vk0), HUVEC migration assay [2]: 1.18 | Relative Migration (%), HUVEC migration assay, 90 ng/ml [2]: 176% | Kd [3]: 0.502 nM | Relative KD to VMDO2 VH0/Vk0 [3]: 0.97 | Index 1 (binding affinity, inverse KD relative to the Average 3.52) [4]: 0.701

From patent US20210403576A1 (HELIXMITH, published 2021)
